± gives the uncertainty stated by the source.

The nature of this data set: self-splicing fitness, log relative to wild type (ln ratio); higher = more splicing; Tetrahymena group I intron in knt gene, E. coli kanamycin selection, DiMSum; sequences stand for … in CUCUCU…GGAGGGAAAAGUUAUCAGGCAUGCACCUGGUAGCUAGUCUUUAAACCAAUAGAUUGCAUCGGUUUAAAAGGCAAGACCGUCAAAUUGCGGGAAAGGGGUCAACAGCCGUUCAGUACCAAGUCUCAGGGGAAACUUUGAGAUGGCCUUGCAAAGGGUAUGGUAAUAAGCUGACGGACAUGGUCCUAACCACGCAGCCAAGUCCUAAGUCAACAGAUCUUCUGUUGAUAUGGAUGCAGUUCACAGACUAAAUGUCGGUCGGGGAAGAUGUAUUCUUCUCAUAAGAUAUAGUCGGACCUCUCCUUAAUGGGAGCUAGCGGAUGAAGUGAUGCAACACUGGAGCCGCUGGGAACUAAUUUGUAUGCGAAAGUAUAUUGAUUAGUUUUGGAGUACUCGUGGUCG
In outline:
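A randomised library covering all eight P1ex-region intron nucleotides was built with the intron in the knt kanamycin-resistance gene on pET-22b(+) and held in E. coli BL21(DE3). Cells were grown overnight at 37°C or 30°C on LB agar, with or without 25 μg/mL kanamycin, plus 100 μg/mL carbenicillin, 50 μM IPTG and 0.2% rhamnose, and pooled colonies were amplicon-sequenced on an Illumina HiSeq 2500. DiMSum fitness is the error-weighted combination of wild-type-normalised replicate fold changes, kanamycin versus none.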

As to GGACAGCAAUAUUACGGUUG, the “self-splicing fitness (ln)” value runs as follows: (30 °C) -1.41 ± 0.067; (37 °C) -0.752 ± 0.083.
Turning to UGCGAGCAAUAUUACGCAGU, the “self-splicing fitness (ln)” value (37 °C) was -4.06 ± 0.39.
UUUCAGCAAUAUUACGACAU: the “self-splicing fitness (ln)” value runs as follows: (30 °C) -1.41 ± 0.015; (37 °C) -0.565 ± 0.033.
As for AAUGAGCAAUAUUACGCGAC, under “37 °C”, the “self-splicing fitness (ln)” value was -1.67 ± 0.48.
UGGAAGCAAUAUUACGAACA: the “self-splicing fitness (ln)” value is, setting by setting: (30 °C) -0.687 ± 0.13; (37 °C) -0.937 ± 0.17.
For the sequence CAACAGCAAUAUUACGGGUC, the “self-splicing fitness (ln)” value (30 °C) was -4.17 ± 0.17 and the “self-splicing fitness (ln)” value (37 °C) was -2.66 ± 0.14.
For the sequence GCGAAGCAAUAUUACGGUUG, the “self-splicing fitness (ln)” value is, setting by setting: (30 °C) -1.54 ± 0.11; (37 °C) -1.9 ± 0.15.
As to GCUGAGCAAUAUUACGAACU, the “self-splicing fitness (ln)” value (30 °C) was -2.49 ± 0.33 and the “self-splicing fitness (ln)” value (37 °C) was -0.576 ± 0.21.
Turning to CUGGAGCAAUAUUACGUAGC, for the setting “37 °C”, the “self-splicing fitness (ln)” value was -2.38 ± 0.32.
CGGCAGCAAUAUUACGCUUG: the “self-splicing fitness (ln)” value runs as follows: (30 °C) -2.4 ± 0.15; (37 °C) -2.31 ± 0.23.
For AUGUAGCAAUAUUACGAUGU, the “self-splicing fitness (ln)” value is -0.753 ± 0.064 (30 °C) and -0.0629 ± 0.087 (37 °C).
With AAUGAGCAAUAUUACGCCUU, the “self-splicing fitness (ln)” value was -2.11 ± 0.13 (30 °C) and -1.43 ± 0.15 (37 °C).
Take CCAGAGCAAUAUUACGCACG: the “self-splicing fitness (ln)” value reads like this: (30 °C) -2.06 ± 0.22; (37 °C) 0.34 ± 0.17.
In the case of UGCCAGCAAUAUUACGGUUA, the “self-splicing fitness (ln)” value is, setting by setting: (30 °C) -0.355 ± 0.059; (37 °C) 0.213 ± 0.066.
As to UGAUAGCAAUAUUACGUCAC, the “self-splicing fitness (ln)” value was -4.14 ± 0.22 (30 °C) and -2.81 ± 0.22 (37 °C).
As for CCCGAGCAAUAUUACGUCGC, the “self-splicing fitness (ln)” value was -2.91 ± 0.25 (30 °C) and -2.29 ± 0.4 (37 °C).
For UCCAAGCAAUAUUACGUUAC, the “self-splicing fitness (ln)” value is, setting by setting: (30 °C) -4.16 ± 0.26; (37 °C) -3.2 ± 0.32.
Take GACCAGCAAUAUUACGUCUU: the “self-splicing fitness (ln)” value was found to be 0.335 ± 0.05 (30 °C) and 0.369 ± 0.068 (37 °C).
In the same order, the values of UUUUAGCAAUAUUACGAGCG are -1.02 ± 0.11 and -1.33 ± 0.1.
Turning to GAGCAGCAAUAUUACGUCCA, the “self-splicing fitness (ln)” value is, setting by setting: (30 °C) -1.3 ± 0.3; (37 °C) -0.418 ± 0.2.
As to UCUGAGCAAUAUUACGUGCA, the “self-splicing fitness (ln)” value reads like this: (30 °C) -2.65 ± 0.19; (37 °C) -1.99 ± 0.22.
Take UGUAAGCAAUAUUACGGCGC: the “self-splicing fitness (ln)” value was -1.87 ± 0.18 (30 °C) and -1.43 ± 0.25 (37 °C).
As to UCUGAGCAAUAUUACGUCUG, the “self-splicing fitness (ln)” value runs as follows: (30 °C) -1.01 ± 0.11; (37 °C) -1.4 ± 0.14.
As to CCGGAGCAAUAUUACGGGUA, under “30 °C”, the “self-splicing fitness (ln)” value was -3.53 ± 0.4.
Take UCGGAGCAAUAUUACGCUGC: the “self-splicing fitness (ln)” value (30 °C) is -3.04 ± 0.38.
As for GGAUAGCAAUAUUACGCUAG, the “self-splicing fitness (ln)” value reads like this: (30 °C) -2.26 ± 0.19; (37 °C) -1.21 ± 0.18.
For the sequence ACAAAGCAAUAUUACGCGGU, the “self-splicing fitness (ln)” value (30 °C) was -3.37 ± 0.13 and the “self-splicing fitness (ln)” value (37 °C) was -2.68 ± 0.14.
In the case of GAGAAGCAAUAUUACGUCGC, for the setting “30 °C”, the “self-splicing fitness (ln)” value was -2.17 ± 0.42.
Turning to UGAAAGCAAUAUUACGUCAG, the “self-splicing fitness (ln)” value runs as follows: (30 °C) -1.78 ± 0.13; (37 °C) -0.368 ± 0.13.
In the case of CGAGAGCAAUAUUACGCACC, the “self-splicing fitness (ln)” value is -1.83 ± 0.28 (30 °C) and -2 ± 0.34 (37 °C).
In the same order, the values of GUCGAGCAAUAUUACGGCAC are -1.29 ± 0.18 and -0.213 ± 0.2.
In the same order, the values of GGGUAGCAAUAUUACGUUUA are -0.585 ± 0.12 and -0.381 ± 0.1.
UAUUAGCAAUAUUACGGCCU: the “self-splicing fitness (ln)” value is, setting by setting: (30 °C) -0.879 ± 0.21; (37 °C) -0.611 ± 0.27.
For AUCGAGCAAUAUUACGCUGA, the “self-splicing fitness (ln)” value (37 °C) was -1.82 ± 0.32.
On to CCAAAGCAAUAUUACGCAAU, for which the “self-splicing fitness (ln)” value was -4.04 ± 0.24 (30 °C) and -1.46 ± 0.18 (37 °C).
As to GUAGAGCAAUAUUACGAAUC, the “self-splicing fitness (ln)” value runs as follows: (30 °C) -1.28 ± 0.2; (37 °C) -0.812 ± 0.29.
Regarding GGGCAGCAAUAUUACGAUCU, the “self-splicing fitness (ln)” value was -0.541 ± 0.092 (30 °C) and 0.124 ± 0.12 (37 °C).
Consider CACGAGCAAUAUUACGGUUA, for which the “self-splicing fitness (ln)” value was -2.76 ± 0.17 (30 °C) and -2.48 ± 0.16 (37 °C).
For CUAUAGCAAUAUUACGCCAU, the “self-splicing fitness (ln)” value (30 °C) was -2.66 ± 0.39 and the “self-splicing fitness (ln)” value (37 °C) is -2.45 ± 0.37.
On to UGUGAGCAAUAUUACGCCUU, for which, where the note is “30 °C”, the “self-splicing fitness (ln)” value was -2.28 ± 0.4.
As to AGUGAGCAAUAUUACGACCU, the “self-splicing fitness (ln)” value runs as follows: (30 °C) -1.32 ± 0.15; (37 °C) -0.41 ± 0.2.
With CUGAAGCAAUAUUACGCUCA, the “self-splicing fitness (ln)” value by setting is: (30 °C) -3.73 ± 0.37; (37 °C) -0.356 ± 0.22.
Consider UGAUAGCAAUAUUACGCCCC, for which the “self-splicing fitness (ln)” value by setting is: (30 °C) -2.85 ± 0.43; (37 °C) -0.875 ± 0.38.
For ACCUAGCAAUAUUACGCGGU, the “self-splicing fitness (ln)” value was -4.32 ± 0.46 (30 °C) and -2.48 ± 0.31 (37 °C).
For UAACAGCAAUAUUACGGGUA the same measures were -0.895 ± 0.061 and 0.0689 ± 0.074.
For GGUCAGCAAUAUUACGCUUA the same measures were 0.0476 ± 0.059 and 0.296 ± 0.078.
Take UUCUAGCAAUAUUACGGGAG: the “self-splicing fitness (ln)” value is, setting by setting: (30 °C) -2.34 ± 0.19; (37 °C) -1.47 ± 0.19.
As for GCUAAGCAAUAUUACGCACG, the “self-splicing fitness (ln)” value (30 °C) is -1.84 ± 0.14 and the “self-splicing fitness (ln)” value (37 °C) was -0.0584 ± 0.14.
In the same order, the values of CAAAAGCAAUAUUACGUAAC are -3.75 ± 0.18 and -2.62 ± 0.3.
On to ACUAAGCAAUAUUACGGCUU, for which the “self-splicing fitness (ln)” value is -2.2 ± 0.1 (30 °C) and -1.27 ± 0.12 (37 °C).
In the same order, the values of GCUAAGCAAUAUUACGACAG are -2.67 ± 0.17 and -2.51 ± 0.32.
For the sequence UGUUAGCAAUAUUACGAACC, the “self-splicing fitness (ln)” value was -0.427 ± 0.21 (30 °C) and 0.133 ± 0.25 (37 °C).
For GACGAGCAAUAUUACGACAA, the “self-splicing fitness (ln)” value (37 °C) is -1.24 ± 0.24.
Consider CCACAGCAAUAUUACGACCG, for which the “self-splicing fitness (ln)” value is -0.115 ± 0.064 (30 °C) and -0.00245 ± 0.083 (37 °C).
With UGACAGCAAUAUUACGCUCG, the “self-splicing fitness (ln)” value by setting is: (30 °C) -1.1 ± 0.11; (37 °C) -0.143 ± 0.14.
Regarding CUAUAGCAAUAUUACGUCAG, the “self-splicing fitness (ln)” value (30 °C) is -1.75 ± 0.11 and the “self-splicing fitness (ln)” value (37 °C) is -0.591 ± 0.12.
Consider UUCAAGCAAUAUUACGGGUC, for which the “self-splicing fitness (ln)” value (30 °C) was -4.54 ± 0.32 and the “self-splicing fitness (ln)” value (37 °C) is -1.53 ± 0.14.
For UGUAAGCAAUAUUACGUGUU the same measures were -3.3 ± 0.15 and -0.96 ± 0.12.
For GGACAGCAAUAUUACGCCCA the same measures were -0.886 ± 0.45 and -0.212 ± 0.36.
CAACAGCAAUAUUACGGGAU: the “self-splicing fitness (ln)” value is -3.7 ± 0.15 (30 °C) and -2.08 ± 0.15 (37 °C).
For GAUGAGCAAUAUUACGUAAA, the “self-splicing fitness (ln)” value reads like this: (30 °C) -3.81 ± 0.17; (37 °C) -1.37 ± 0.15.
In the case of AAUUAGCAAUAUUACGGCUC, the “self-splicing fitness (ln)” value runs as follows: (30 °C) -0.532 ± 0.14; (37 °C) 0.0268 ± 0.16.
For CGGAAGCAAUAUUACGAAGG, the “self-splicing fitness (ln)” value runs as follows: (30 °C) -1.17 ± 0.11; (37 °C) -0.983 ± 0.18.

The record behind these values is the supplement of paper PMC7877785.
